B1: HTS0373 scFv (scFv, V domains shown)
VH: EVQLQQSGPELVKPGASMKISCKASGYSFAGYTVNWVKQSHGKNLEWIGLINPYNGGTTYTPKFKDKATLTVDKSSSTAYMELLSLTSEDSAVYYCTRGGFYRYDFDFWGQGTSVTVSS
VL: DILMTQSPSSLSASLGERVSLTCRASQEISGYLSWLQQKPDGTIKRLIYAASTLDSGVPKRFSGSRSGSDYSLTISSLESEDFADYYCLQYASYPFTFGSGTKLEMK
notes: Tested as one scFv chain in E. coli supernatant, found with an anti-6xHis antibody
B2: HTS0374 scFv (scFv, V domains shown)
VH: QVQLQQSGPELVKPGTSMKISCKASGYSFTGYTVNWVKQSHGKNLEWIGLINPYNGGTTYTPKFKDKATLTVDKSSSTAYMELLSLTSEDSAVYYCTRGGFYRYDFDFWGQGTSLTVSS
VL: EIQMTQSPSSLSASLGERVSLTCRASQDIGSSLNWLQQEPDGTIKRLIYATSSLDSGVPKRFSGSRSGSDYSLTISSLESEDFVDYYCLQYASSPYTFGGGTKLEMK
notes: as for B1
B3: HTS0371 scFv (scFv, V domains shown)
VH: EVQLQQSGPELVKPGASVKMSCKASGYTFTSYVMHWVKQKPGQGLEWIGYINPYNDGTKYNEKFKGKATLTSDKSSSTAYMELSSLTSEDSAVYYCARGGKLNWYFDVWGAGTTVTVSS
VL: NIVMTQSPASLAVSLGQRATISCRASESVDSYGNSFMHWYQQKPGQPPKLLIYLASNLESGVPARFSGSGSRTDFTLTIDPVEADDAATYYCQQNNEDPYTFGGGTKLEIN
notes: as for B1
B4: HTS0372 scFv (scFv, V domains shown)
VH: EVQLQQSGPELVKPGASMKISCKASGYSFTGYTMNWVKQSHGKNLEWIGLINPYNGRTIYNQKFKGKATLTVDKSSSTAYMELLSLTSEDSAVYYCARVALRYAMDYWGQGTSLTVSS
VL: DIVMTQSQKFMSTSVGDRVSVTCKASQNVGTNVAWYQQKPGQSPKALIYSASYRYSGVPDRFTGSGSGTDFTLTISNVQSEDLAEYFCQQYNSYPLTFGAGTKLEIN
notes: as for B1
B5: HTS0375 scFv (scFv, V domains shown)
VH: EVQLQQSGPELVKPGASMKISCKASGYSFTGYTMNWVKQSHGKNLEWIGLINPYNGRTIYNQKFKGKATLTVDKSSSTAYMELLSLTSEDSAVYYCARVALRYAMDYWGQGTSLTVSS
VL: SIVMTQSQKFMSTSVGDKVSVTCKASQSVYTNVAWYQQKPGQSPKSLIYSASYRYNGVPDRFTGSGSGTDFTLTISNVQSEDLAEYFCQQYNSYPVTFGAGTKLEIK
notes: as for B1
B6: HTS0370 scFv (scFv, V domains shown)
VH: EVQLQQSGAELMKPGASVKISCKATGYTFSSYWMEWVKQRPGLGLEWIGQILPGSSYTNYNDKFKGKATFTADTSSNTAYMQLSSLTSEDSAVYYCAKKGGPIYYGNRPFYYAMDYWGQGTSVTVSS
VL: NIMMTQTPKFLLVSAGDRVTITCKASQSVSNDVAWYQQKPGQSPKLQIYYASNRYTGVPDRFTGSGYGTDFTFTISTVQAEDLAVYFCQQDYSSPLTFGAGTKLEIK
notes: as for B1

Each binder was assayed against T1, 人GPRC5D (human G protein-coupled receptor family C group 5 member D) (human, UniProt Q9NZD1 1-345) (assay: flow cytometry, scFv supernatant on HEK293-GPRC5D-ZSGreen1 and H929 cells, APC anti-6xHis).
T1 construct: also called huGPRC5D; hGPRC5D
T1 sequence (Q9NZD1 whole entry): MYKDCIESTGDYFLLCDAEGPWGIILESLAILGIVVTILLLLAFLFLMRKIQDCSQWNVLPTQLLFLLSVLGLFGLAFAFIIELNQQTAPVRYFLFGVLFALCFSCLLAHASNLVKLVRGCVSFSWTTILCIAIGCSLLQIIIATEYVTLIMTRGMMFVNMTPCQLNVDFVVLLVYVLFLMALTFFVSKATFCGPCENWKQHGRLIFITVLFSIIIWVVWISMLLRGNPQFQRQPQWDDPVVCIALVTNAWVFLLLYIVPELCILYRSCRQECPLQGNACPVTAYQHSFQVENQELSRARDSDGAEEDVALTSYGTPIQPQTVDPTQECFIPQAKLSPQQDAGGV
B1: binds. B2: binds. B3: binds. B4: binds. B5: binds. B6: binds.

— patent CN115386006A (SHANGHAI XIANGYAO BIOLOGICAL TECH CO LTD, dated 2022)
